Starred links: 1 amine or outer side, 2 acyl side, 3 side chain; linkers in the order of their positions; H or OH if unused. Positions of bridges follow the written chain, without caps; N, C: chain ends. Non-standard residues stand in square brackets, D forms with d. Primed or numbered codes have the meaning given here. *: point of attachment. PyrS2″ = (S)-3-amino-1-((pent-4-en-1-yloxy)carbonyl)pyrrolidine-3-carboxylic acid (stapling residue), C=CCCCOC(=O)N1CC[C@@](N[*:1])(C(=O)[*:2])C1; (bismethoxyethylamine)GlnR = [bismethoxyethylamine]GlnR, N5,N5-bis(2-methoxyethyl)-L-glutamine, COCCN(CCOC)C(=O)CC[C@H](N[*:1])C(=O)[*:2]; B5(4) = 2,2-bis(4-pentenyl)glycine = 2-amino-2-(pent-4-en-1-yl)hept-6-enoic acid (stitching residue), C=CCCCC(CCCC=C)(N[*:1])C(=O)[*:2]; (AcPpz)GlnR = [AcPpz]GlnR, (S)-5-(4-acetylpiperazin-1-yl)-2-amino-5-oxopentanoic acid, CC(=O)N1CCN(C(=O)CC[C@H](N[*:1])C(=O)[*:2])CC1; TfeGA = (S)-2-amino-3-((carboxymethyl)(2,2,2-trifluoroethyl)amino)propanoic acid, O=C([C@H](CN(CC(=O)[*:3])CC(F)(F)F)N[*:1])[*:2]; PyrS2 = (S)-3-amino-1-((pent-4-en-1-yloxy)carbonyl)pyrrolidine-3-carboxylic acid, C=CCCCOC(=O)N1CC[C@@](N[*:1])(C(=O)[*:2])C1; PyrS1 = (S)-3-amino-1-((but-3-en-1-yloxy)carbonyl)pyrrolidine-3-carboxylic acid, C=CCCOC(=O)N1CC[C@@](N[*:1])(C(=O)[*:2])C1; PyrS = (S)-1-((allyloxy)carbonyl)-3-aminopyrrolidine-3-carboxylic acid, C=CCOC(=O)N1CC[C@@](N[*:1])(C(=O)[*:2])C1; (Morph)GlnR″ = [Morph]GlnR, (S)-2-amino-5-morpholino-5-oxopentanoic acid, O=C(CC[C@H](N[*:1])C(=O)[*:2])N1CCOCC1; MorphAsn = (S)-2-amino-4-morpholino-4-oxobutanoic acid, O=C(C[C@H](N[*:1])C(=O)[*:2])N1CCOCC1; B6 = 2-amino-2-(hex-5-en-1-yl)oct-7-enoic acid, C=CCCCCC(CCCCC=C)(N[*:1])C(=O)[*:2]; Me2Asn = listed as N4-methyl-L-asparagine, CNC(=O)C[C@H](N[*:1])C(=O)[*:2]; 5hexenyl = N-terminal hex-5-enoic acid (acyl cap), C=CCCCC(=O)*; Phe(3-COOH) = N[C@@H](Cc1cccc(C(=O)O)c1)C(=O)O; Phe(2-CF3) = N[C@@H](Cc1ccccc1C(F)(F)F)C(=O)O; Bta = N[C@@H](Cc1csc2ccccc12)C(=O)O; αAllylPro = C=CC[C@@]1(C(=O)O)CCCN1; Morpholinoacetyl = O=C(CN1CCOCC1)*; tBuAla = CC(C)(C)C[C@H](N)C(=O)O; 3Thi = N[C@@H](Cc1ccsc1)C(=O)O; Cha = N[C@@H](CC1CCCCC1)C(=O)O; AllylGly = C=CC[C@H](N)C(=O)O; BnBoroleK = not defined here; PyrS2(4) = not defined here; TfeGA″ = not defined here; Nle = CCCC[C@H](N)C(=O)O; Abu = CC[C@H](N)C(=O)O; Aib = CC(C)(N)C(=O)O
T1: B-cat-Halo (beta-catenin HaloTag fusion expressed in HEK293 cells) (UniProt P35222 1-781)
T1 sequence (looked up): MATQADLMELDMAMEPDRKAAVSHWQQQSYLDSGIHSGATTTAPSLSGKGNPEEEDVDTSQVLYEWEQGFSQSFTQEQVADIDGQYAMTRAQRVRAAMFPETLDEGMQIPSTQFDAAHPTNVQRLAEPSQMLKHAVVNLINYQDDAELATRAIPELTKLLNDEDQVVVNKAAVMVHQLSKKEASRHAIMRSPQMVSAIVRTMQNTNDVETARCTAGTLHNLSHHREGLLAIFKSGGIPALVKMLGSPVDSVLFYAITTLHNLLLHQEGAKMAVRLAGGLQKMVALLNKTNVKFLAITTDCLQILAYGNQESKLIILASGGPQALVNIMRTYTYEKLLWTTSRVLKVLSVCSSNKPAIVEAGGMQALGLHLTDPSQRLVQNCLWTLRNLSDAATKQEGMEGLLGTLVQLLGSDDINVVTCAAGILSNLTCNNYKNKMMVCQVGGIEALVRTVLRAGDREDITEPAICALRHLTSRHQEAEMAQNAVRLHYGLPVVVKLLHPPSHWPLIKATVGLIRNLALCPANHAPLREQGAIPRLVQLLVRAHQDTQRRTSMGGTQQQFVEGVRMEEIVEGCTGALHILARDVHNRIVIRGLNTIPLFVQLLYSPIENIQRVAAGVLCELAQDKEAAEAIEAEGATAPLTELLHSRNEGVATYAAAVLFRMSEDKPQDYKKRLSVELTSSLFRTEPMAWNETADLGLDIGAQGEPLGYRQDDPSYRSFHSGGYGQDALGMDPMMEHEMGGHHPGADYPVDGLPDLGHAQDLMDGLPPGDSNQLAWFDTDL

T2: B-cat-Halo (beta-catenin HaloTag construct expressed in HEK293 cells) (UniProt P35222 1-781)
T2 sequence (looked up): T1 sequence (looked up)

T3: B-cat-Halo (beta-catenin HaloTag construct expressed in HEK293 cells) (UniProt P35222 1-781)
T3 sequence (looked up): T1 sequence (looked up)

B1: I-2188 (peptide)
peptide: Ac-[αAllylPro]D[tBuAla][B5(4)]D[Phe(3-COOH)][Me2Asn]AFL[PyrS2(4)][3Thi][Bta]A-NH2
modifications: staple 1-4, 4-11; reading uncertain; also: printed as Ac-PL3-Asp-Npg-B5-Asp-3COOHF-Me2Asn-Ala-Phe-Leu-PyrS2-3Thi-BztA-Ala-NH2
B2: I-2190 (peptide)
peptide: Ac-[αAllylPro]D[tBuAla][B5(4)]D[Phe(3-COOH)]SAFL[PyrS2(4)][3Thi][Bta]V-NH2
modifications: staple 1-4, 4-11; reading uncertain; also: printed as Ac-PL3-Asp-Npg-B5-Asp-3COOHF-Ser-Ala-Phe-Leu-PyrS2-3Thi-BztA-Val-NH2
B3: I-2529 (peptide)
peptide: 5hexenyl-[αAllylPro]D[AllylGly][B5(4)]D[Phe(3-COOH)]AAFL[PyrS2″][Phe(2-CF3)][Bta]Q-NH2
modifications: staple (positions not given here); not fully specified (bridges); printed as 5hexenyl-PL3-Asp-AllylGly-B5-Asp-3COOHF-Ala-Ala-Phe-Leu-PyrS2-2F3MeF-BztA-Gln-NH2; also: staple C=C reduced to CH2-CH2, staple partners not given here
B4: I-2523 (peptide)
peptide: Ac-[αAllylPro]N[Cha][B5(4)]DQKAFL[PyrS2]F[Bta][MorphAsn]-NH2
modifications: staple 1-4, 4-11; not fully specified (residue 7); printed as Ac-PL3-Asn-Cha-B5-Asp-Gln-[Phc]Lys-Ala-Phe-Leu-PyrS2-Phe-BztA-MorphAsn-NH2
B5: I-2185 (peptide)
peptide: Ac-[αAllylPro]D[tBuAla][B5(4)]D[TfeGA]AAFL[PyrS2″][3Thi][Bta]Q-NH2
modifications: staple 1-4, 4-11; not fully specified (residue 9); also: later-eluting HPLC isomer peak

Experiments:
Experiment in all cases: cell-based or functional assay
[1] = target: T1, B-cat-Halo (beta-catenin HaloTag fusion …)
[2] = target: T2, B-cat-Halo (beta-catenin HaloTag …)
[3] = target: T3, B-cat-Halo (beta-catenin HaloTag …); remark: listed apart in the source

Binder	NanoBRET Abs IC50 (uM); Bcat-Halo / TCF4-Luc in HEK293 cells [2] [µM]	NanoBRET Abs IC50 [3] [µM]	other results
Ac-[αAllylPro]D[tBuAla][B5(4)]D[Phe(3-COOH)][Aib]AF[Nle][PyrS2″][3Thi][Bta][(Morph)GlnR″]-NH2 (staple 1-4, 4-11) [I-2553]	–	–	NanoBRET Abs IC50 [1]: 8.2 µM
Ac-[αAllylPro]N[Cha][B5(4)]DQK(Ac)AFL[PyrS2]F[Bta][MorphAsn]-NH2 (staple 1-4, 4-11) [I-2522]	> 20	–	–
B1	–	7.6	–
Ac-[αAllylPro]D[tBuAla][B5(4)]D[Phe(3-COOH)][Aib]AF[Nle][PyrS2″][3Thi][Bta][(AcPpz)GlnR]-NH2 (staple 1-4, 4-11) [I-2556]	–	–	NanoBRET Abs IC50 [1]: 7 µM
Ac-[αAllylPro]D[tBuAla][B5(4)]D[Phe(3-COOH)][Aib]AF[Nle][PyrS2″][3Thi][Bta][(4F3CPip)GlnR]-NH2 (staple 1-4, 4-11) [I-2557]	–	–	NanoBRET Abs IC50 [1]: 19.6 µM
B2	–	33.4	–
Ac-[αAllylPro]N[Cha][B5(4)]DQK(mPEG4)AFL[PyrS2]F[Bta][MorphAsn]-NH2 (staple 1-4, 4-11) [I-2526]	> 20	–	–
Ac-[αAllylPro]D[tBuAla][B5(4)]D[Phe(3-COOH)][Nle]AFL[PyrS2″][3Thi][Bta][tBuAla]-NH2 (staple 1-4, 4-11) [I-2193]	–	39.9	–
Ac-[αAllylPro]D[tBuAla][B5(4)]D[Phe(3-COOH)][Aib]AF[Abu][PyrS2″][3Thi][Bta][(Morph)GlnR″]-NH2 (staple 1-4, 4-11) [I-2558]	–	–	NanoBRET Abs IC50 [1]: 14.7 µM
B3	33.2	–	–
Ac-[αAllylPro]D[tBuAla][B5(4)]D[Phe(3-COOH)][Aib]AF[Nle][PyrS2″][3Thi][Bta][(bismethoxyethylamine)GlnR]-NH2 (staple 1-4, 4-11) [I-2554]	–	–	NanoBRET Abs IC50 [1]: 3.3 µM
Ac-[αAllylPro]D[tBuAla][B5(4)]D[TfeGA″]AAFL[PyrS2(4)][3Thi][Bta][BnBoroleK]-NH2 (staple 1-4, 4-11; reading uncertain; also: later-eluting HPLC isomer peak) [I-2187]	–	10.8	–
Ac-[αAllylPro]D[tBuAla][B6]D[Phe(3-COOH)]QAFL[PyrS2][Phe(2-CF3)][Bta]A-NH2 (staple 1-4, 4-11) [I-2517]	30	–	–
Ac-[αAllylPro]D[tBuAla][B6]D[Phe(3-COOH)]AAFL[PyrS2][Phe(2-CF3)][Bta]Q-NH2 (staple 1-4, 4-11) [I-2513]	> 20	–	–
Ac-[αAllylPro]D[tBuAla][B5(4)]D[Phe(3-COOH)]SAFL[PyrS2″][3Thi][Bta][tBuAla]-NH2 (staple 1-4, 4-11) [I-2195]	–	21	–
Ac-[αAllylPro]D[tBuAla][B6]D[Phe(3-COOH)]QAFL[PyrS2][Phe(2-CF3)][Bta]A-NH2 (staple 1-4, 4-11) [I-2515]	> 20	–	–
Ac-[αAllylPro]D[tBuAla][B6]D[Phe(3-COOH)]AAFL[PyrS][Phe(2-CF3)][Bta]Q-NH2 (staple 1-4, 4-11) [I-2518]	> 20	–	–
Ac-[αAllylPro]D[tBuAla][B5(4)]D[Phe(3-COOH)]AAFL[PyrS2″][Phe(2-CF3)][Bta][Me2Gln]-NH2 (staple 1-4, 4-11) [I-2532]	4.5	–	–
B4	> 20	–	–
Ac-[αAllylPro]D[tBuAla][B5(4)]D[Phe(3-COOH)][Aib]AF[Nle][PyrS2″][3Thi][Bta][(4Pippip)GlnR]-NH2 (staple 1-4, 4-11) [I-2555]	–	–	NanoBRET Abs IC50 [1]: 22.1 µM
Ac-[αAllylPro]N[Cha][B5(4)]DQK(Morpholinoacetyl)AFL[PyrS2]F[Bta][MorphAsn]-NH2 (staple 1-4, 4-11) [I-2527]	> 20	–	–
Ac-[αAllylPro]D[tBuAla][B5(4)]D[Phe(3-COOH)][Me2Asn]AFL[PyrS2″][3Thi][Bta][tBuAla]-NH2 (staple 1-4, 4-11) [I-2196]	–	39.3	–
Ac-[αAllylPro]D[tBuAla][B5(4)]D[Phe(3-COOH)][Nle]AFL[PyrS2″][3Thi][Bta]V-NH2 (staple 1-4, 4-11) [I-2189]	–	33.4	–
Ac-[αAllylPro]D[tBuAla][B5(4)]D[Phe(3-COOH)][Aib]AFL[PyrS2″][3Thi][Bta][tBuAla]-NH2 (staple 1-4, 4-11) [I-2194]	–	8.8	–
B5	–	6.1	–
Ac-[αAllylPro]D[tBuAla][B5(4)]D[Phe(3-COOH)][Me2Asn]AFL[PyrS2″][3Thi][Bta]V-NH2 (staple 1-4, 4-11) [I-2191]	–	29.5	–
Ac-[αAllylPro]D[tBuAla][B6]D[Phe(3-COOH)]QAFL[PyrS1][Phe(2-CF3)][Bta]A-NH2 (staple 1-4, 4-11) [I-2510]	7.8	–	–
Ac-[αAllylPro]D[tBuAla][B5(4)]D[Phe(3-COOH)]QAFL[PyrS2″][3Thi][Bta][tBuAla]-NH2 (staple 1-4, 4-11) [I-2192]	–	16.1	–

From patent publication US20240116985A1 (published 2024)
